Experimental data from PMC12788653 (PLOS Pathogens, 2025).

Molecular target: the molecule itself
Test: SEC

B1: recombinant A/WSN/1933 (H1N1) NP, NΔ7NP with C-terminal His tag (WT) (natural protein)
chain: RSYEQMETDGERQNATEIRASVGKMIGGIGRFYIQMCTELKLSDYEGRLIQNSLTIERMVLSAFDERRNKYLEEHPSAGKDPKKTGGPIYRRVDGKWMRELILYDKEEIRRIWRQANNGDDATAGLTHMMIWHSNLNDATYQRTRALVRTGMDPRMCSLMQGSTLPRRSGAAGAAVKGVGTMVMELIRMIKRGINDRNFWRGENGRRTRIAYERMCNILKGKFQTAAQRAMVDQVRESRNPGNAEFEDLIFLARSALILRGSVAHKSCLPACVYGPAVASGYDFEREGYSLVGIDPFRLLQNSQVYSLIRPNENPAHKSQLVWMACHSAAFEDLRVSSFIRGTKVVPRGKLSTRGVQIASNENMETMESSTLELRSRYWAIRTRSGGNTNQQRASSGQISIQPTFSVQRNLPFDRPTIMAAFTGNTEGRTSDMRTEIIRLMESARPEDVSFQGRGVFELSDEKAASPIVPSFDMSNEGSYFFGDNAEEYDN
notes: also called WT NP; pET28a-NΔ7NP
  binding result: binds
